In the RNAGym collection of RNA variant scans (doi:10.1073/pnas.2313332121):
Variants at the floor of the assay were thinned out.

B1: TPR 5TU (parent)
chain: GGAUCUUCUCGAUCUAACAAAAAAGACAAAUCUGCCACAAAGCUUGAGAGCAUCUUCGGAUGCAGAGGCGGCAGCCUUCGGUGGCGCGAUAGCGCCAACGUUCUCAACUAUGACACGCAAAACGCGUGCUCCGUUGAAUGGAGUUUAUCAUG

Variants of: B1
Experiment: polymerase ribozyme fitness, log enrichment relative to wild type (log ratio); higher = more active; in vitro selection for triplet polymerase activity
Outline: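 To select mutant libraries of each subunit of a heterodimeric triplet polymerase ribozyme, built by PCR and transcribed, each was annealed with a biotinylated primer, partner subunit and triplets, then incubated frozen at −7 °C. Extended constructs were gel-excised, captured on streptavidin beads and amplified by RT-PCR, in one round carried out in triplicate. Illumina sequencing of input and output libraries kept genotypes with ≥10 input reads and ≥1 read per output. Fitness is the base-2 logarithm of genotype enrichment relative to wild-type enrichment, from inverse-variance-weighted replicate averages.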

Row | Variant | polymerase ribozyme fitness (log ratio)
1 | A19C A106C | 0.458
2 | A17G A60G G84U C118A U146G | -2.3
3 | A19C C95A C96U C125G C149U | ≤ -4.2
4 | A17C G86U | -0.8
5 | C18A C38A A47C C93A A98U | -3.69
6 | C18U A40U C85U C96U C116U | 0.0691
7 | C18G A26C A107G | ≤ -4.2
8 | C18A G50A G68A C96G C99U G136A | ≤ -4.2
9 | A19G C54A | -1.26
10 | C18G C38U C72U | -0.0428
11 | A17C G62A C85A | -1.77
12 | C18U A52C G86A C99U U146G | -4.02
13 | A17G C57U C69A G100A | ≤ -4.2
14 | A19C A23G A30C A91G A138U U139G | -4.05
15 | C18U C32G C51U C87G | ≤ -4.2
16 | A17U G126A | 0.557
17 | A17U G59A C87U C93A G143U U146G | ≤ -4.2
18 | C18G G42C C87U A138C U145A | ≤ -4.2
19 | A19G A26U G84A A147G | -3.45
20 | A17G C35U C85G A98C A121U C123A | -1.35
21 | C18U C87U C99G | -2.1
22 | A17C U53A A73U C76A C85G C108A U146A | ≤ -4.2
23 | A19G A20G C43U A47C U55G C87U C105U U145G | ≤ -4.2
24 | A19G A52U G83A A98G C118G G124A U134C G140U | ≤ -4.2

Row | Variant | polymerase ribozyme fitness (log ratio)
25 | A19C U56A G65A C87U A97U | -1.81
26 | C18A A73G G83C C118U A150G | ≤ -4.2
27 | A17U A22U C35U C51U G83U | -1.87
28 | A17U A24U U56G | -0.773
29 | A19C C57A | 0.797
30 | C18U C57A C95U C96A | -1.46
31 | A17C C85A C99A | -2.66
32 | C18U U31C A89C C93A G140U | ≤ -4.2
33 | A17U C54U | -0.241
34 | A19G C27U G59U G94C | -2.46
35 | A19C U55G U90G | ≤ -4.2
36 | A17U U90G C103A | ≤ -4.2
37 | C18G C123G | -0.253
38 | C18U G58C A73G C132A | -3.75
39 | A17G G84U | -2
40 | C18G G46U A73U C85U G92U C125A | ≤ -4.2
41 | A17U C32U A52C G84C U90C U109G | ≤ -4.2
42 | C18U A113G C123A | -3.22
43 | A17G A21U A49C G59C G74U C85G C116U U134A | ≤ -4.2
44 | C18G C32U A37G A60G C75U C96U | ≤ -4.2
45 | A19C C32U A37G A52G C87G A89U U90A C125G U139G | ≤ -4.2
46 | A19G A23G A110U | ≤ -4.2
47 | C18A A20C U53C G59U C93G U148C | -4.14
48 | C18G C35U U55A G62U G68U C75U C96U | ≤ -4.2

Row | Variant | polymerase ribozyme fitness (log ratio)
49 | A17U A23C A37C A41C C96A G124U | ≤ -4.2
50 | C18U A60G G62A G86A C149U | -3.44
51 | A17U A37U C96A C99U A113C U134G G152C | -4.19
52 | C18U A19C A30C A47U U56A G67C G70A C85G C87A C96U A142C | ≤ -4.2
53 | C18A A20U A47G A52C G65A G83U U101C G136U | ≤ -4.2
54 | A17U A21G A40G U55A A60G C95A U146C | -2.4
55 | C18U G74C C96A | ≤ -4.2
56 | A19C G83U | 0.141
57 | C18A A20U G25C G83A C87U U145A C149A | ≤ -4.2
58 | A17C C35U G92A A122G | -2.61
59 | A17G A41U C54U A73G | -1.46
60 | C18U G42A C85U C103U | -4.11
61 | A17U A37C G46A C85G C114U | ≤ -4.2
62 | A17U U44G U56G G128U | ≤ -4.2
63 | A17U U90A U102A U127A A137G A138C U151A | ≤ -4.2
64 | A19C G59A C76G C87U | ≤ -4.2
65 | A19C A28C A52G U56A G83A A142C | ≤ -4.2
66 | A17G C87U | -0.0232
67 | A17U U61G C76G | ≤ -4.2
68 | A17U A41C G83C A97U U127A A138U A150C | ≤ -4.2
69 | A17C A73G C76G U82C C85G | ≤ -4.2
70 | C18G C57U G59A G80A G86U | -2.45
71 | A17U A37C U61A C93A C99A C125A U144A | ≤ -4.2
72 | A19C A22U C57G C87U G94U C103G U104G C129A | ≤ -4.2

Row | Variant | polymerase ribozyme fitness (log ratio)
73 | A17U C35U A66C C72U G80A C93A | ≤ -4.2
74 | A17U C54U G84A | -0.832
75 | A19G C38U A40C C79A G86U C96G | ≤ -4.2
76 | A17U A28U G83U C96A C99U C132G | ≤ -4.2
77 | A17U A28C U31A | -3.71
78 | A17C C85G C149G | ≤ -4.2
79 | A17U G94C | -1.63
80 | C18G C76A C85U | -0.589
81 | A17U U53A | -0.974
82 | A19G A49U U55A C96U | -1.84
83 | C18U C36U C75A C79U C118A C131U | ≤ -4.2
84 | C18U G140U | -3.29
85 | C18U A60U G92U C93U C95U C125U | -4.09
86 | A17U A22U A26G C36G G67C C95A | ≤ -4.2
87 | A19G A91C | -4.15
88 | C18G U82C C85A A142C | -2.92
89 | C18U A52C U145G | -2.09
90 | A19C G50A | -1.01
91 | C18G A22G C27U A41U A49C C57A C93G G140C | -4.12
92 | A17G A20U G84A A97U A115C | -3.45
93 | A19G C75U C93A | -3.68
94 | A17C C27U C85U G86U C123U G141A | -3.85
95 | A19C G65U A73U G88A C114A U148C | ≤ -4.2
96 | C18G C32G U55A G83U G88U A113C A138C | ≤ -4.2

Row | Variant | polymerase ribozyme fitness (log ratio)
97 | A19G A52U C96U A122G | -2.62
98 | C18U A26U U31A U53A G94U | ≤ -4.2
99 | C18A G86A C96U A115C | -2.7
100 | C18G C72G G84C | ≤ -4.2
101 | A17C U33C G42U U44A U56G | ≤ -4.2
102 | A19G A40C G48U U61A G74C C87A G126U | ≤ -4.2
103 | A17G C85U | -1.27
104 | A19C G67C | ≤ -4.2
105 | A17U A24U A52G C57U C96G G140A | ≤ -4.2
106 | C18G U61C C85G C95U | ≤ -4.2
107 | C18G G92A | -3.23
108 | C18U U144C C149U | -4.09
109 | C18U C32U G83U | -3.14
110 | A19C C96U G124C | -0.582
111 | A17U C76A G83A C87G G124A A150C | ≤ -4.2
112 | C18G G50A A91G G94C C132G | ≤ -4.2
113 | C18A U56A C93A A137G | -4.08
114 | A19G A26U U45A A52U U61A G70C C85G A115U G141U | ≤ -4.2
115 | A17G A22G A24U G46A A47C C123A C129A | ≤ -4.2
116 | A17U A40U A52G G59A C99G U135C A138G | ≤ -4.2
117 | A17U C69G G80C A107U C131U U145G | ≤ -4.2
118 | A19C C35A | -3.08
119 | C18G A20C A22U U55G G62A | -3.57
120 | A19C U55G C93U G136U | -3.02

Row | Variant | polymerase ribozyme fitness (log ratio)
121 | C18U G42C | ≤ -4.2
122 | A19G A26U C36G A73U C87A G88C A97G | ≤ -4.2
123 | A17U A20G A40C G126U | -0.583
124 | A17U C35U A40U G92U | -2.32
125 | A17C C85G G94A C123A G124U | -1.12
126 | A17U A24U | 0.106
127 | C18U C87U | -1.47
128 | A19C C63U A120G U145A | 0.504
129 | A17G A39U G94U G141A | -4.08
130 | C18A A20U A24G A26G A29U C57A U77A G88C | ≤ -4.2
131 | A19G A20U U55A C87A C131U U148A | ≤ -4.2
132 | A17G A21U A49C G59C G74U C85G | ≤ -4.2
133 | A19C A26C C38A C43G G74U G80C | ≤ -4.2
134 | A19C U61G C93A | -4.05
135 | A17G A20U A52C A89G C95A A106U U134A | ≤ -4.2
136 | A17U A28G G34C A64C C79G U90G | ≤ -4.2
137 | A19C G58C G88U A98G C103G | ≤ -4.2
138 | A19C C54G G94U U111A A115C C125U | ≤ -4.2
139 | A17G A23U C79G | ≤ -4.2
140 | A19G C35U C87U C95A | -2.49
141 | A17U C85U | -1.68
142 | C18U C85A | -0.837
143 | A17C C85U A120G G124U G143C | -3.22
144 | C18G C51U C85A A107U C118U A137U | ≤ -4.2

Row | Variant | polymerase ribozyme fitness (log ratio)
145 | A17G A60G U61A A110G C118U C129A | ≤ -4.2
146 | C18G C96U A119U | -0.786
147 | C18U U78A G81U C87G U144A | ≤ -4.2
148 | C18A A20G A24C C27G U82C G126U | ≤ -4.2
149 | A17C G83C | -0.317
150 | A17C U33A A73U C96U G128A G140A U146G | -3.99
151 | A17U C69U U77C C87U | ≤ -4.2
152 | A17U A49G G86U | -1.95
153 | C18U G92U A97G U146A | -2.16
154 | A17G A30U G83A U101C G128U | ≤ -4.2
155 | A17G C36G G83C C99U U104G C125U U145C A147C | ≤ -4.2
156 | C18G A21U C35U C95U | -1.12
157 | C18G A24U G50U U53A A73G G92A | ≤ -4.2
158 | C18A G83A A107C A110C | ≤ -4.2
159 | A17G A19C U55G C87U C93U C108U G141U | ≤ -4.2
160 | A17G A39U C54G A64C A89C U90G A122U U139C U144A | ≤ -4.2
161 | A17C C85A | -2.22
162 | C18A U31C A40C G62C A91C A119G | ≤ -4.2
163 | C18U C36A C38A U55A G84U | ≤ -4.2
164 | A17U A40U A113C A115C C131U | ≤ -4.2
165 | A17C U31G C76A C95G | ≤ -4.2
166 | C18G G58C G81A | -0.953
167 | A19C A20G U55A G58U C85A G140C | ≤ -4.2
